This assay deals with HilD^Q39E,N44D,H95L mutant (recombinant) (Salmonella enterica serovar Typhimurium strain 14028s). As to the kind of experiment: mass photometry.

What is called stoichiometry N is the number of molecules, sites or subunits per partner or assembly. In the case of “HilD^Q39E,N44D,H95L mutant (recombinant) (natural protein)”, the stoichiometry N worked out at 2.

The values are drawn from PMC9805502.
